The subject of one assay is 293T cells. The assay is described as follows: Bax-mediated apoptosis in 293T cells transfected with YFP-Bax and Ku70 (apoptotic nuclei scored). The conditions noted are these: for effect on the ability of Ku70 to suppress Bax-mediated apoptosis: 293T cells cotransfected with YFP-Bax and Ku70, apoptotic nuclei scored 24 hr posttransfection. It counts as cell-based, human.

The next assay relates to Ku70 acetylation. The assay is described as follows: Ku70 acetylation level in cells (Ku70 IP, panAc-K antibody blot). It counts as cell-based, human. The following applies: HeLa cells, NAM 5 mM, TSA 1 μM, normalized to DMSO treatment.
The next assay deals with T1, PCAF (Homo sapiens, UniProt Q92831).
T1 construct: 100 ng of recombinant HAT domains of p300, PCAF, or CBP
In words: In vitro acetylation assay of Ku70 peptides with PCAF HAT domain and 3H-acetyl-CoA. It counts as biochemical. Further details: key to Relative Intensity of Acetylation: +: Band intensity was measured using NIH ImageJ software and normalized to the intensity of peptide 3.; ++: Band intensity was measured using NIH ImageJ software and normalized to the intensity of peptide 3.; +++: Band intensity was measured using NIH ImageJ software and normalized to the intensity of peptide 3.; +++++: Band intensity was measured using NIH ImageJ software and normalized to the intensity of peptide 3. The following applies: for acetylation of peptide by PCAF in vitro: HAT domain of PCAF, 3H-acetyl-CoA, autoradiography; for Relative Intensity of Acetylation: Ku70 peptides acetylated by PCAF in vitro, band intensity normalized to peptide 3. The method, then:
FIG. 2B is a schematic representation of the synthetic peptide library spanning the entire length of Ku70. Each peptide was incubated with PCAF and 3H-acetyl-CoA and analyzed as in FIG. 2A.
(§1) FIG. 2C is a series of photographs showing acetylation peptides 16 and 29 as resolved by SDS-PAGE (PCAF reaction, left panel; CBP reaction, right panel). The acetylated domain of p53 (aa 315-325) served as a positive control for acetylation.
(§2) FIG. 2D is a photograph showing acetylation results of a series of scanning synthetic peptides of peptide 29. These scanning synthetic peptides were synthesized, with three out of the four lysines (K) substituted for arginine (R), a residue that cannot be acetylated. Peptides were incubated in acetylation reactions with PCAF or CBP and resolved by SDS-PAGE as above.
(§3) Due to the strong interaction between Ku70 and CBP and the efficient acetylation of Ku70 in vitro, we sought to define the regions of Ku70 that are targeted for acetylation. A library of 31 peptides was synthesized to cover the entire Ku70 sequence (FIG. 2B). Each of these peptides was incubated in an acetylation reaction as above, with either the HAT domain of PCAF or CBP. Again, a p53 peptide served as a positive control. […] Peptide 29 ([…]541-562), which contains four lysines (K542, K544, K553, and K556), is located within the C-terminal flexible linker region that we had previously identified as a potential target for acetylation (see FIG. 1 B).
(§4) To determine which lysines in peptide 29 were being acetylated in the reaction, a series of substitutions were made in which three out of the four lysines were replaced with arginine, a residue that cannot be acetylated. Each peptide was then incubated with either PCAF or CBP and analyzed by autoradiography as above.
(§5) Protein acetyltransferase assays were performed in 30 μl of reaction buffer containing 50 mM HEPES (pH 8.0), 10% glycerol, 1 mM DTT, 1 mM PMSF, 10 mM Na-butyrate, 1 μL (3H]-acetyl-CoA, 1 μg recombinant Ku70/80 complex or Ku70 peptide, and 100 ng of recombinant HAT domains of p300, PCAF, or CBP. Reactions were incubated at 30° C. for 1 hr and separated by SDS-PAGE (10%), stained with Coomassie blue, treated with EN^3HANCE autoradiography enhancer (NEN), dried, and exposed to film for 3-7 days. p53 peptides used as positive controls were p53315-3235 and p53377-389.

For another assay, the target named is T2, CBP (Homo sapiens, UniProt Q92793).
T2 construct: 100 ng of recombinant HAT domains of p300, PCAF, or CBP
The assay is described as follows: In vitro acetylation assay of Ku70 peptides with CBP HAT domain and 3H-acetyl-CoA. The format is biochemical. The conditions noted are these: autoradiography.
From the text: as §1, §2, §3, §4, §5

T1 sequence (Q92831 503-651 limits assumed): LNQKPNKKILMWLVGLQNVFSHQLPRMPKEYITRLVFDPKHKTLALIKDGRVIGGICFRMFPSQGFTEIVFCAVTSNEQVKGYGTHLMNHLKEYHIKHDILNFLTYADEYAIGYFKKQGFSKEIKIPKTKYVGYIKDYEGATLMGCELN
T2 sequence (Q92793 1323-1700 limits assumed): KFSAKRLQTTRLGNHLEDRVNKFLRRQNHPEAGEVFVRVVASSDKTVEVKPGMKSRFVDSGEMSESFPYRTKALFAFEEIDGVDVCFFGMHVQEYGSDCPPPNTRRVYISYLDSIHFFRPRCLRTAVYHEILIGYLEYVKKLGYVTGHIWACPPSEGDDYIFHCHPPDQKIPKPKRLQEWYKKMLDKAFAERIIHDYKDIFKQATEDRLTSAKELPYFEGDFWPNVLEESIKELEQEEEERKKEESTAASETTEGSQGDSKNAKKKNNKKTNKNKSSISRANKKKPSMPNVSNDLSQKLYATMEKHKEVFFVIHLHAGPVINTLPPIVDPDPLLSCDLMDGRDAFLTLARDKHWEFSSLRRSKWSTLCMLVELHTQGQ
Experimental for 293T cells: 293T cells were cotransfected with YFP (Yellow Fluorescent Protein)-Bax and pcDNA-Ku70 in the presence or absence of TSA/NAM. The percentage of cells with apoptotic nuclei were scored 24 hr posttransfection.
(A) 293T cells were transfected with YFP (1 μg) or YFP-Bax (1 μg) and Ku70 (2 μg). Twleve hrs after the transfection, the medium was supplemented with resveratrol (0, 50 or 100 nM) and the percentage of YFP positive cells with apoptotic nuclei were scored 24 hrs post-transfection. Values represent the average of three experiments in which at least 200 cells were counted and error bars represent the standard error of the mean. […] (C,D) The indicated cell lines were transfected with either YFP (1 μg), YFP-Bax (1 μg) or YFP-Bax (1 μg) and Ku70 (2 μg), and percent apoptosis was determined.
Human embryonic kidney cells (293T) were transfected with a Bax-YFP expression construct and YFP-positive cells were scored 24 hr later for a fragmented nucleus, a well-characterized apoptotic phenotype (Sawada et al., Nat. Cell Biol. 5, 320-329 (2003)).
In revesterol experiments, 293T cells were transfected with 1 μg YFP or 1 μg YFP-Bax and 2 μg Ku70. 12 hours after the transfection the media was supplemented with varying amounts of resveratrol, (0, 50 or 100 nM) and the percentage of YFP positive cells with apoptotic nuclei were scored 24 hours post-transfection.
Experimental for Ku70 acetylation: Briefly, HeLa cells were grown under one of the following conditions: 0.10/6 DMSO, 1 μM TSA, 5 mM nicotinamide (NAM), or TSA and NAM. Ku70 was immunoprecipitated from whole-cell extracts and probed for lysine acetylation using a panAc-Lys Ab.
To determine which class of deacetylase targets Ku70 in vivo, cells were treated with either TSA or NAM and the acetylation level of Ku70 was detected using the panAc-K antibody.
For immunoprecipitation (IP) of Ku70, 1 mg of protein was precleared by incubation with protein A/G Sepharose beads (Santa Cruz). The supernatant was incubated with agarose-conjugated goat polyclonal anti-Ku70 antibody (Santa Cruz), followed by three washes in 1% triton in PBS. The immunocomplex was separated by SDS-PAGE and proteins were detected with a rabbit polyclonal anti-pan-acetyl-lysine (panAc-K) antibody raised against acetylated rabbit's serum.

For `NC(=O)c1cccnc1` [NAM, nicotinamide], the “effect on the ability of Ku70 to suppress Bax-mediated apoptosis” value in the assay on 293T cells is given as “abrogated the ability of Ku70 to suppress apoptosis”. Besides, the “increase in total acetylation level of Ku70” value in the assay with Ku70 acetylation is on record as 1.8 fold.

For `CC(/C=C/C(=O)NO)=C\[C@@H](C)C(=O)c1ccc(N(C)C)cc1` [TSA, trichostatin A], the “effect on the ability of Ku70 to suppress Bax-mediated apoptosis” value in the assay with 293T cells was “apoptosis suppression was completely blocked”. Moreover, in the assay on Ku70 acetylation, the “increase in total acetylation level of Ku70” value is 2.4 fold.

In the case of `Oc1ccc(/C=C/c2cc(O)cc(O)c2)cc1` [resveratrol, 3,5,4′-Trihydroxy-trans-stilbene], in the assay on 293T cells (293T cells, YFP-Bax and Ku70, resveratrol 0, 50 or 100 nM added 12 hrs after transfection, scored 24 hrs post-transfection), the “suppression of Bax-mediated apoptosis” value is given as “dose-dependent suppression of Bax-mediated apoptosis”.

Turning to “ASKAMFESQSEDELT [Peptide 3, Ku70 peptide, amino acids 44-58]”, in the assay with PCAF, the “acetylation of peptide by PCAF in vitro” value is reported as “acetylated by PCAF” and the “Relative Intensity of Acetylation” value is given as “+”.

In the case of “KRRR: peptide 29 variant retaining K542, the other three lysines replaced with arginine (TKRRHDNEGSGSRRPRVEYSEE)”, the “acetylation of peptide by PCAF in vitro” value with PCAF was “acetylated to almost the same extent as the original peptide 29”. The “acetylation of peptide by CBP in vitro” value with CBP is “acetylated to almost the same extent as the original peptide 29”.

With “LLLPSDTKRSQIY [Peptide 15, Ku70 peptide, amino acids 310-322]”, in the assay with PCAF, the “acetylation of peptide by PCAF in vitro” value is “acetylated by PCAF” and the “Relative Intensity of Acetylation” value is “+++”.

“RQIILEKEETEELKRFD [Peptide 16, Ku70 peptide, amino acids 325-341]”: in the assay with PCAF, the “acetylation of peptide by PCAF in vitro” value is listed as “strongly acetylated” and the “Relative Intensity of Acetylation” value is listed as “+++”. Besides, the “acetylation of peptide by CBP in vitro” value with CBP was “strongly acetylated”.

Regarding “RRKR: peptide 29 variant retaining K553, the other three lysines replaced with arginine (TRRRHDNEGSGSKRPRVEYSEE)”, the “acetylation of peptide by PCAF in vitro” value with PCAF is reported as “weakly acetylated”. Besides, the “acetylation of peptide by CBP in vitro” value in the assay with CBP is recorded as “weakly acetylated”.

For the compound “TKRKHDNEGSGSKRPKVEYSEE [Peptide 29, Ku70 peptide, amino acids 541-562]”, in the assay with PCAF, the “acetylation of peptide by PCAF in vitro” value is listed as “strongly acetylated” and the “Relative Intensity of Acetylation” value is “+++++”. In the assay with CBP, the “acetylation of peptide by CBP in vitro” value was “strongly acetylated”.

“VQFKMSHKRIMLFTNED [Peptide 8, Ku70 peptide, amino acids 157-173]”: in the assay with PCAF, the “acetylation of peptide by PCAF in vitro” value is on record as “acetylated by PCAF” and the “Relative Intensity of Acetylation” value is “++”.

The record behind these values is patent US20060084085A1, “Methods and compositions for modulating Bax-mediated apoptosis” (priority 2004, published 2006).
